Data: PMC3825029 (Journal of immunology (Baltimore, Md. : 1950), 2013)

Experiments:
C3b = assay: SPR
C3dg = C3dg (UniProt P01024 955-1303); assay: SPR
C3dg, sequence (P01024 955-1303): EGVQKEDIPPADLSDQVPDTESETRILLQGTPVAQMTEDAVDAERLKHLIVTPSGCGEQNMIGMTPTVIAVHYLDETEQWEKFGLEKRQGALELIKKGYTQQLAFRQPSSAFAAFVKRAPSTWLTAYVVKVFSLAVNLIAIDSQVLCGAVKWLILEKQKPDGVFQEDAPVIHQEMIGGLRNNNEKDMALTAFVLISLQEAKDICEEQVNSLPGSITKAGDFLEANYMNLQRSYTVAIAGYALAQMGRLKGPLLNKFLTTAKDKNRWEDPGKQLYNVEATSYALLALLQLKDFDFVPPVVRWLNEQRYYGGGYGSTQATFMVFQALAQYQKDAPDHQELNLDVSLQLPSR

Molecule: factor H (from UniProt P08603 19-1231) (natural protein)
- Kd (C3b): 1 µM

Molecule: mini-FH (from UniProt P08603 1-264; P08603 1107-1231) (designed binder)
- Kd (C3b): 1 µM

B1: FH19-20 (domain or fragment, human)
chain: GKCGPPPPIDNGDITSFPLSVYAPASSVEYQCQNLYQLEGNKRITCRNGQWSEPPKCLHPCVISREIMENYNIALRWTAKQKLYSRTGESVEFVCKRGYRLSSRSHTLRTTCWDGKLEYPTCAKR
- binding result (C3dg): binds
